From US20220177587A1, “METHODS AND USES OF VARIANT CD80 FUSION PROTEINS AND RELATED CONSTRUCTS” (Alpine Immune Sciences, Inc., priority 2018, published 2022)

B1: I118T, C128R (protein)
chain: VIHVTKEVKEVATLSCGHNVSVEELAQTRIYWQKEKKMVLTMMSGDMNIWPEYKNRTIFDITNNLSIVILALRPSDEGTYECVVLKYEKDAFKREHLAEVTLSVKADFPTPSISDFETPTSNIRRIIRSTSGGFPEPHLSWLENGEELNAINTTVSQDPETELYAVSSKLDFNMTTNHSFMCLIKYGHLRVNQTFNWNTTKQEHFPDN
modifications: CD80 v118 ECD
B2: Q27R, R29C, M42T, S129P, E160G (protein)
chain: VIHVTKEVKEVATLSCGHNVSVEELARTCIYWQKEKKMVLTTMSGDMNIWPEYKNRTIFDITNNLSIVILALRPSDEGTYECVVLKYEKDAFKREHLAEVTLSVKADFPTPSISDFEIPTSNIRRIICPTSGGFPEPHLSWLENGEELNAINTTVSQDPGTELYAVSSKLDFNMTTNHSFMCLIKYGHLRVNQTFNWNTTKQEHFPDN
modifications: CD80 v119 ECD
B3: H18L, R29D, Y31L, Q33H, K36G, M38I, T41A, M43R, M47T, E81V, L85R, K89N, A91T, F92P, K93V, R94L, L97R, T130A, N149S (protein, UniProt P33681 35-288, looked up, variant H18L R29D Y31L Q33H K36G M38I T41A M43R M47T E81V L85R K89N A91T F92P K93V R94L L97R T130A N149S)
T-lymphocyte activation …: VIHVTKEVKEVATLSCGLNVSVEELAQTDILWHKEGKIVLAMRSGDTNIWPEYKNRTIFDITNNLSIVILALRPSDEGTYVCVVRKYENDTPVLEHRAEVTLSVKADFPTPSISDFEIPTSNIRRIICSASGGFPEPHLSWLENGEELSAINTTVSQDPETELYAVSSKLDFNMTTNHSFMCLIKYGHLRVNQTFNWNTTKQEHFPDNLLPSWAITLISVNGIFVICCLTYCFAPRCRERRRNERLRRESVRPV
B4: T28A, R29D, Y31L, Q33H, K36G, M38I, T41A, M43R, M47T, E81V, L85R, K89N, A91T, F92P, K93V, R94L, V104L, T130A, N149S (protein)
chain: VIHVTKEVKEVATLSCGHNVSVEELAQADILWHKEGKIVLAMRSGDTNIWPEYKNRTIFDITNNLSIVILALRPSDEGTYVCVVRKYENDTPVLEHLAEVTLSLKADFPTPSISDFEIPTSNIRRIICSASGGFPEPHLSWLENGEELSAINTTVSQDPETELYAVSSKLDFNMTTNHSFMCLIKYGHLRVNQTFNWNTTKQEHFPDN
B5: H18L, R29D, Y31L, Q33H, K36G, M38I, T41A, M43R, M47T, E81V, L85R, K89N, A91T, F92P, K93V, R94L, L97R, N149S, H188Q (protein)
chain: VIHVTKEVKEVATLSCGLNVSVEELAQTDILWHKEGKIVLAMRSGDTNIWPEYKNRTIFDITNNLSIVILALRPSDEGTYVCVVRKYENDTPVLEHRAEVTLSVKADFPTPSISDFEIPTSNIRRIICSTSGGFPEPHLSWLENGEELSAINTTVSQDPETELYAVSSKLDFNMTTNHSFMCLIKYGQLRVNQTFNWNTTKQEHFPDN
B6: R29D, Y31L, Q33H, K36G, M38I, T41A, M43R, M47T, E81V, L85R, K89N, A91T, F92P, K93V, R94L, I118V, T120S, T130A, K169E, M174T (protein)
chain: VIHVTKEVKEVATLSCGHNVSVEELAQTDILWHKEGKIVLAMRSGDTNIWPEYKNRTIFDITNNLSIVILALRPSDEGTYVCVVRKYENDTPVLEHLAEVTLSVKADFPTPSISDFEVPSSNIRRIICSASGGFPEPHLSWLENGEELNAINTTVSQDPETELYAVSSELDFNTTTNHSFMCLIKYGHLRVNQTFNWNTTKQEHFPDN
B7: R29D, Y31L, Q33H, K36G, M38I, T41A, M43R, M47T, E81V, L85R, K89N, A91T, F92P, K93V, R94L, I118T, T130A, N149S, K169I, Q193L (protein)
chain: VIHVTKEVKEVATLSCGHNVSVEELAQTDILWHKEGKIVLAMRSGDTNIWPEYKNRTIFDITNNLSIVILALRPSDEGTYVCVVRKYENDTPVLEHLAEVTLSVKADFPTPSISDFETPTSNIRRIICSASGGFPEPHLSWLENGEELSAINTTVSQDPETELYAVSSILDFNMTTNHSFMCLIKYGHLRVNLTFNWNTTKQEHFPDN
B8: R29D, Y31L, Q33H, K36G, M38I, T41A, M43R, M47T, E81V, L85R, K89N, A91T, F92P, K93V, R94L, I118T, T130A, N149S (protein)
chain: VIHVTKEVKEVATLSCGHNVSVEELAQTDILWHKEGKIVLAMRSGDTNIWPEYKNRTIFDITNNLSIVILALRPSDEGTYVCVVRKYENDTPVLEHLAEVTLSVKADFPTPSISDFETPTSNIRRIICSASGGFPEPHLSWLENGEELSAINTTVSQDPETELYAVSSKLDFNMTTNHSFMCLIKYGHLRVNQTFNWNTTKQEHFPDN
B9: R29D, Y31L, Q33H, K36G, M38I, T41A, M43R, M47T, E81V, L85R, K89N, A91T, F92P, K93V, R94L, H18L, V68A, T130A, N149S, T154I (protein)
chain: VIHVTKEVKEVATLSCGLNVSVEELAQTDILWHKEGKIVLAMRSGDTNIWPEYKNRTIFDITNNLSIAILALRPSDEGTYVCVVRKYENDTPVLEHLAEVTLSVKADFPTPSISDFEIPTSNIRRIICSASGGFPEPHLSWLENGEELSAINTIVSQDPETELYAVSSKLDFNMTTNHSFMCLIKYGHLRVNQTFNWNTTKQEHFPDN
B10: R29D, Y31L, Q33H, K36G, M38I, T41A, M43R, M47T, E81V, L85R, K89N, A91T, F92P, K93V, R94L, V22A, I118T, T130A, N149S (protein)
chain: VIHVTKEVKEVATLSCGHNVSAEELAQTDILWHKEGKIVLAMRSGDTNIWPEYKNRTIFDITNNLSIVILALRPSDEGTYVCVVRKYENDTPVLEHLAEVTLSVKADFPTPSISDFETPTSNIRRIICSASGGFPEPHLSWLENGEELSAINTTVSQDPETELYAVSSKLDFNMTTNHSFMCLIKYGHLRVNQTFNWNTTKQEHFPDN
B11: R29D, Y31L, Q33H, K36G, M38I, T41A, M43R, M47T, E81V, L85R, K89N, A91T, F92P, K93V, R94L, I118T, T130A, N149S, K169I (protein)
chain: VIHVTKEVKEVATLSCGHNVSVEELAQTDILWHKEGKIVLAMRSGDTNIWPEYKNRTIFDITNNLSIVILALRPSDEGTYVCVVRKYENDTPVLEHLAEVTLSVKADFPTPSISDFETPTSNIRRIICSASGGFPEPHLSWLENGEELSAINTTVSQDPETELYAVSSILDFNMTTNHSFMCLIKYGHLRVNQTFNWNTTKQEHFPDN
B12: R29D, Y31L, Q33H, K36G, M38I, T41A, M43R, M47T, E81V, L85R, K89N, A91T, F92P, K93V, R94F, T130A, N149S, K169I (protein)
chain: VIHVTKEVKEVATLSCGHNVSVEELAQTDILWHKEGKIVLAMRSGDTNIWPEYKNRTIFDITNNLSIVILALRPSDEGTYVCVVRKYENDTPVFEHLAEVTLSVKADFPTPSISDFEIPTSNIRRIICSASGGFPEPHLSWLENGEELSAINTTVSQDPETELYAVSSILDFNMTTNHSFMCLIKYGHLRVNQTFNWNTTKQEHFPDN

System: human pan T cells
Experiment: Anti-CD3 coimmobilization assay, IFN-gamma
Format: cell-based
Details: Table E34; culture supernatant, 3 days
Experimental: Costimulatory bioactivity of CD80 fusion variants was determined in anti-CD3 coimmobilization assays. 1 nM or 4 nM mouse anti-human CD3 (OKT3, Biolegends, USA) was diluted in PBS with 1 nM to 80 nM rCD80.Fc variant proteins. This mixture was added to tissue culture treated flat bottom 96-well plates (Corning, USA) overnight to facilitate adherence of the stimulatory proteins to the wells of the plate. The next day, unbound protein was washed off the plates and 100,000 purified human pan T cells (BenTech Bio, US) or human T cell clone BC3 (Astarte Biologics, USA) were added to each well in a final volume of 200 μl of Ex-Vivo 15 media (Lonza, Switzerland). Cells were cultured 3 days before harvesting culture supernatants and measuring human IFN-gamma levels with Duoset ELISA kit (R&D Systems, USA) as described above.

Molecule	Anti-CD3 IFN-gamma Coimmobilization Assay [pg/mL]
B1	122
B2	139
B3	96
B4	116
B5	125
B6	141
B7	130
B8	89
B9	132
B10	124
B11	101
B12	114
